Data published in paper PMC3294125.

Legend:
Assay in all cases: kinetics
Asp26 = Asp26 (UniProt position 26, FMSTNDKDIGV); conditions: Continuous catalytic turnover
Cys139 = Cys139 (UniProt position 139, AFPRMCNLSYW); conditions: Continuous catalytic turnover; cited from earlier work
Asp139 = Asp139 (UniProt position 139, AFPRMDNLSYW); conditions: Continuous catalytic turnover; cited from earlier work
Asp132 = Asp132 (UniProt position 132, HIGAPDMAFPR); conditions: Continuous catalytic turnover; cited from earlier work

In the case of “Cytochrome c oxidase (aa3-type), subunit I H26D-D132A, subunit III-depleted (Rhodobacter sphaeroides; H26D;D132A)”, the pKa (Asp26) is reported as 7.0 (6.9–7.1).

For “Cytochrome c oxidase (aa3-type), subunit I N139C-D132N, subunit III-depleted (Rhodobacter sphaeroides; N139C;D132N)”, the pKa (Cys139) is given as 8.0 (7.9–8.1).

For “Cytochrome c oxidase (aa3-type), subunit I N139D-D132N, subunit III-depleted (Rhodobacter sphaeroides; N139D;D132N)”, the pKa (Asp139) is listed as 7.7 (7.5–7.9).

For “Cytochrome c oxidase (aa3-type), subunit I, in subunit III-depleted enzyme [WT III (−)] (Rhodobacter sphaeroides)”, the pKa (Asp132) is given as 7.0–7.3.
